In patent publication US20260242478A1 (published 2026):

B1: Phage-3883 (peptide)
peptide: VDYVCRPSWMCSGI
notes: tested as crude phage supernatant; The number 3883 of the label stands in r4366
B2: Phage-3888 (peptide)
peptide: LQIRCQPVWMCHGF
notes: tested as crude clonal phage supernatant
B3: Phage-3889 (peptide)
peptide: IDTLCVPWWMCSGF
notes: as for B2
B4: Phage-3886 (peptide)
peptide: TEHQCVPAWMCGGF
notes: as for B2
B5: Phage-3887 (peptide)
peptide: ILRHCTPEWMCIGL
notes: as for B2
B6: Phage-3892 (peptide)
peptide: DYWYCQPAWMCTGL
notes: as for B2
B7: Phage-3894 (peptide)
peptide: DLQMCLPKWMCVGF
notes: as for B2
B8: Phage-3891 (peptide)
peptide: VVYTCVPSWMCTGL
notes: as for B2
B9: Phage-3893 (peptide)
peptide: LVPRCLPEWMCTGF
notes: as for B2
B10: Phage-3895 (peptide)
peptide: EWIMCTPPWMCHGF
notes: as for B2
B11: Phage-3890 (peptide)
peptide: DQHACRPEWMCVGF
notes: as for B2
B12: Phage-3885 (peptide)
peptide: GMVRCVPDWMCYGF
notes: as for B2
B13: Phage-3884 (peptide)
peptide: TEPACVPPWMCVGW
notes: as for B2

Target: T1, PSMA Fab
T1 construct: also called Anti-PSMA Fab; 006 PSMA Fab
Experiment: clonal phage ELISA on captured PSMA Fab, wells pre-incubated with PSMA antigen as competitor
Experimental: (§1) Clonal phage were harvested as crude supernatants and screened via standard ELISAs. […] Prior to the addition of clonal phage. wells were incubated with blocking buffer and PSMA antigen or blocking buffer alone. Without washing or aspirating, clonal phage supernatants were then added to the wells and incubated for a short time. Wells were then washed followed by detection of bound phage using a horse radish conjugated anti-M13 antibody.

Row | Binder | phage binding ELISA signal
1 | ESKLCIPDWMCILL (tested as crude phage supernatant) [Phage-3881] | 0.0662
2 | LQQLCVPNWMCVGF (tested as crude phage supernatant) [Phage-3873] | 0.0902
3 | B1 | 0.0618
4 | TAPMCNPPWMCYGL (tested as crude phage supernatant) [Phage-3878] | 0.0701
5 | STMLCSPSWMCFGF (tested as crude phage supernatant) [Phage-3872] | 0.073
6 | YDRLCSPPWMCSGF (tested as crude phage supernatant) [Phage-3874] | 0.0629
7 | EGILCKPSWMCNDF (tested as crude phage supernatant) [Phage-3871] | 0.0803
8 | EDALCVPQWMCSGF (tested as crude phage supernatant) [Phage-3877] | 0.0648
9 | SNVMCRPSWMCAGF (tested as crude phage supernatant) [Phage-3876] | 0.132
10 | PQIKCIPAWMCDGF (tested as crude phage supernatant) [Phage-3875] | 0.0851
11 | IEKQCVPQWMCDGF (tested as crude phage supernatant) [Phage-3880] | 0.0745
12 | VTPACMPRWMCEGF (tested as crude phage supernatant) [Phage-3879] | 0.0611
13 | MDVWCVPQWMCDGF (tested as crude phage supernatant) [Phage-3882] | 0.0645
14 | AVIMCEPSWMCEGF (tested as crude phage supernatant) [Phage-3870] | 0.102

Target: T1, PSMA Fab
Experiment: clonal phage ELISA on biotinylated PSMA Fab captured on neutravidin plates, anti-M13 HRP detection;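 further: crude clonal phage supernatants tested, before phage were added, wells were pretreated with PSMA antigen in blocking buffer or with blocking buffer only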
Experimental: as §1

Row | Binder | phage binding ELISA signal
15 | ESKLCIPDWMCILL (tested as crude phage supernatant) [Phage-3881] | 1.13
16 | LQQLCVPNWMCVGF (tested as crude phage supernatant) [Phage-3873] | 1.15
17 | B1 | 1.12
18 | TAPMCNPPWMCYGL (tested as crude phage supernatant) [Phage-3878] | 1.13
19 | STMLCSPSWMCFGF (tested as crude phage supernatant) [Phage-3872] | 1.15
20 | YDRLCSPPWMCSGF (tested as crude phage supernatant) [Phage-3874] | 1.15
21 | EGILCKPSWMCNDF (tested as crude phage supernatant) [Phage-3871] | 1.15
22 | EDALCVPQWMCSGF (tested as crude phage supernatant) [Phage-3877] | 1.14
23 | SNVMCRPSWMCAGF (tested as crude phage supernatant) [Phage-3876] | 1.14
24 | PQIKCIPAWMCDGF (tested as crude phage supernatant) [Phage-3875] | 1.14
25 | IEKQCVPQWMCDGF (tested as crude phage supernatant) [Phage-3880] | 1.13
26 | VTPACMPRWMCEGF (tested as crude phage supernatant) [Phage-3879] | 1.13
27 | MDVWCVPQWMCDGF (tested as crude phage supernatant) [Phage-3882] | 1.12
28 | AVIMCEPSWMCEGF (tested as crude phage supernatant) [Phage-3870] | 1.16

Target: T2, PSMA Fab (biotinylated (site not stated))
T2 construct: Biotinylated PSMA Fab captured on neutravidin coated plates in the phage ELISA; also called Anti-PSMA Fab; 006 PSMA Fab
Experiment: phage ELISA; biotinylated PSMA Fab on neutravidin plate, clonal phage supernatant, anti-M13 HRP detection;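 further: wells preincubated with PSMA antigen in blocking buffer or with blocking buffer only before clonal phage were added for a short incubation, then bound phage detected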

Row | Binder | Phage binding ELISA signal, Anti-PSMA Fab
29 | VPRLCMPPWMCVGF [Phage-3848] | 1.21
30 | VSKMCSPVWMCEGF [Phage-3854] | 1.19
31 | WQAWCEPPWMCLGF [Phage-3851] | 1.2
32 | DQRMCEPSWMCLGL [Phage-3852] | 1.19
33 | WDIRCSPEWMCIGL [Phage-3849] | 1.21
34 | ELRLCVPHWMCDGF [Phage-3847] | 1.21
35 | VVHLCTPNWMCNGF [Phage-3853] | 1.19
36 | YNQLCIPNWMCTGF [Phage-3846] | 1.21
37 | EPKECVPPWMCIGM [Phage-3850] | 1.21
38 | NYVKCRPAWMCDGF [Phage-3855] | 1.18

Target: T3, Anti-PSMA Fab
T3 construct: In the phage ELISA the PSMA Fab was biotinylated and captured on neutravidin coated plates; also called 006 PSMA Fab
Experiment: as above
Experimental: as §1

Row | Binder | Phage binding ELISA signal, Anti-PSMA Fab
39 | GSHYCVPQWMCGGF [Phage-3858] | 1.17
40 | PSQMCVPTWMCVGF [Phage-3862] | 1.17
41 | YELACVPRWMCYGL [Phage-3856] | 1.18
42 | PYTLCRPAWMCQAM [Phage-3868] | 1.16
43 | SDHLCIPRWMCVGF [Phage-3857] | 1.18
44 | QLGACIPWWMCNGF [Phage-3863] | 1.17
45 | VQIVCSPTWMCTGF [Phage-3861] | 1.17
46 | GQGSCVPMWMCEGF [Phage-3866] | 1.16
47 | MGVECKPLWMCTGL [Phage-3865] | 1.16
48 | LSWECVPQWMCTGL [Phage-3867] | 1.16
49 | EHARCTPAWMCAGF [Phage-3859] | 1.17
50 | IESICRPAWMCERL [Phage-3860] | 1.17
51 | NAGYCVPTWMCDGF [Phage-3864] | 1.17
52 | LEIFCVPMWMCEGL [Phage-3869] | 1.16

Target: T4, 006 PSMA Fab (biotinylated (site not stated))
T4 construct: also called Anti-PSMA Fab
Experiment: clonal phage ELISA; biotinylated PSMA Fab on neutravidin plate, blocking buffer alone, anti-M13-HRP detection;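 further: crude clonal phage supernatants added without washing to wells preincubated with PSMA antigen or with blocking buffer alone, briefly incubated, then washed before bound phage detection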

Row | Binder | Phage binding ELISA signal, Anti-PSMA Fab
53 | B2 | 1.1
54 | B3 | 1.1
55 | B4 | 1.11
56 | B5 | 1.11
57 | B6 | 1.1
58 | B7 | 1.09
59 | B8 | 1.1
60 | B9 | 1.09
61 | B10 | 1.09
62 | B11 | 1.1
63 | B12 | 1.11
64 | B13 | 1.12

Target: T2, PSMA Fab
Experiment: phage ELISA; biotinylated PSMA Fab on neutravidin plate pre-incubated with PSMA antigen as competitor, anti-M13 HRP detection;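 further: crude clonal phage supernatants tested, compared against control wells pre-incubated with blocking buffer only, without PSMA antigen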
Experimental: as §1

Row | Binder | Phage binding ELISA signal, Anti-PSMA Fab in presence of PSMA
65 | VPRLCMPPWMCVGF [Phage-3848] | 0.0968
66 | VSKMCSPVWMCEGF [Phage-3854] | 0.0928
67 | WQAWCEPPWMCLGF [Phage-3851] | 0.0962
68 | DQRMCEPSWMCLGL [Phage-3852] | 0.0704
69 | WDIRCSPEWMCIGL [Phage-3849] | 0.0603
70 | ELRLCVPHWMCDGF [Phage-3847] | 0.0777
71 | VVHLCTPNWMCNGF [Phage-3853] | 0.0576
72 | YNQLCIPNWMCTGF [Phage-3846] | 0.0729
73 | EPKECVPPWMCIGM [Phage-3850] | 0.079
74 | NYVKCRPAWMCDGF [Phage-3855] | 0.0759

Target: T4, 006 PSMA Fab
Experiment: clonal phage ELISA; biotinylated PSMA Fab on neutravidin plate pre-incubated with PSMA antigen as competitor, anti-M13-HRP detection
Experimental: as §1

Row | Binder | Phage binding ELISA signal, Anti-PSMA Fab in the presence of PSMA antigen
75 | B2 | 0.0801
76 | B3 | 0.0774
77 | B4 | 0.0809
78 | B5 | 0.0689
79 | B6 | 0.0585
80 | B7 | 0.0639
81 | B8 | 0.062
82 | B9 | 0.0848
83 | B10 | 0.0638
84 | B11 | 0.0789
85 | B12 | 0.0613
86 | B13 | 0.128
